Experiments:
[1] = target: single chain H2A.Z-H2B (single stranded H2A.Z-H2B protein) (budding yeast); assay: ITC
[2] = target: single chain H2A.Z-H2B (single stranded H2A.Z-H2B protein) (budding yeast); assay: CPMG relaxation dispersion NMR

Kd [1]: 100 nM | Kd [2]: 220 nM | koff [2]: 22 s⁻¹
B1: Chz.core (residues 71–132 of Chz1) (domain or fragment)
chain: DMDDAKLDALMGNEGEEEEDDLAEIDTSNIITSGRRTRGKVIDYKKTAEELDKKEPSTGSKD

Reference: PMC2768378
